Experimental data: patent publication US20160108110A1 (Novartis, published 2016)

T1: Human ANGPTL4(26-406)-FLAG-His6-Avi (human, UniProt Q9BY76 24-406, biotin on the C-terminal Avi tag in the biotinylated preparations (immobilised form in SET, ELISA and Octet))
T1 sequence: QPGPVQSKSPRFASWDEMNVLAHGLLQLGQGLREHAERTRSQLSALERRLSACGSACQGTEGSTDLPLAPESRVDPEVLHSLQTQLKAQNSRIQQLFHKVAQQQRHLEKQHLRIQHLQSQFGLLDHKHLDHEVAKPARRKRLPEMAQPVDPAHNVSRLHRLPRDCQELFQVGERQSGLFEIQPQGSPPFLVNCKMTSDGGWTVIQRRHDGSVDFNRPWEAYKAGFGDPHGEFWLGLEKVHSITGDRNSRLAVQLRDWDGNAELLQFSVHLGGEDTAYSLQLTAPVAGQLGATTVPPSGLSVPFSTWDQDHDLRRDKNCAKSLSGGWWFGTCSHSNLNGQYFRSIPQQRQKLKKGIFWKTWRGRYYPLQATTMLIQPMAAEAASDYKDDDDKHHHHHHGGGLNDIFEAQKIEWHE

T2: ANGPTL4-derived peptide P3 (human)
T2 peptide: SPRFASWDEMNVLAH

T3: ANGPTL4-derived peptide P43 (human)
T3 peptide: KHLDHEVAKPARRKR

T4: ANGPTL4-derived peptide P41 (human)
T4 peptide: LLDHKHLDHEVAKPA

T5: ANGPTL4-derived peptide P5 (human)
T5 peptide: WDEMNVLAHGLLQLG

T6: ANGPTL4-derived peptide P32 (human)
T6 peptide: LFHKVAQQQRHLEKQ

T7: ANGPTL4-derived peptide P16 (human)
T7 construct: printed with S where human ANGPTL4 has C
T7 peptide: RRLSASGSASQGTEG

T8: ANGPTL4-derived peptide P21 (human)
T8 peptide: STDLPLAPESRVDPE

T9: ANGPTL4-derived peptide P26 (human)
T9 peptide: VLHSLQTQLKAQNSR

T10: ANGPTL4-derived peptide P40 (human)
T10 peptide: QFGLLDHKHLDHEVA

T11: Human ANGPTL3(17-460)-FLAG-His-Avi (human, UniProt Q9Y5C1 17-460, biotin on the C-terminal Avi tag)
T11 construct: also called full length human ANGPTL3; hANGPTL3
T11 sequence: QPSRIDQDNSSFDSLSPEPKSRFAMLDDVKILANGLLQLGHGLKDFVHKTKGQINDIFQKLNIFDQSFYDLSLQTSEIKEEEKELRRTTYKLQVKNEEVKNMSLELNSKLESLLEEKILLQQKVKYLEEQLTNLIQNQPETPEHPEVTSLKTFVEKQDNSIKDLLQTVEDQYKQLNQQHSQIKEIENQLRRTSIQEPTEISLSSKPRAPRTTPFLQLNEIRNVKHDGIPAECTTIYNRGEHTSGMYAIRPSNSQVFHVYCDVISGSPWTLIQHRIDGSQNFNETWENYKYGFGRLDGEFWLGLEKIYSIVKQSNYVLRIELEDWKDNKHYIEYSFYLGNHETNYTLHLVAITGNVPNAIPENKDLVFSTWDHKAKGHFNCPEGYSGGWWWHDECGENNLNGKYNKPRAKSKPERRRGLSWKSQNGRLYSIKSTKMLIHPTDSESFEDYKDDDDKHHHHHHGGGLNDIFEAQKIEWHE


Tests used:
[1] = target: T1, Human ANGPTL4(26-406)-FLAG-His6-Avi; assay: cell-based or functional assay
[2] = target: T2, ANGPTL4-derived peptide P3; assay: peptide array, immobilised linear 15-mers
Method: (§1) The ability of selected antibodies of invention, namely MOR022765 and MOR022770, to bind to linear 15-amino-acid peptides derived from the N-terminal coiled coil domain of human ANGPTL4 was tested. The peptides were immobilized on a glass surface, and the ability of MOR022765 and MOR022770 to bind to the immobilized peptides was evaluated using experimental methods optimized for linear peptide epitope mapping at JPT Peptide Technologies (Berlin, Germany).

[3] = target: T3, ANGPTL4-derived peptide P43; assay: peptide array, immobilised linear 15-mers
Method: as §1

[4] = target: T4, ANGPTL4-derived peptide P41; assay: peptide array, immobilised linear 15-mers
Method: as §1

[5] = target: T5, ANGPTL4-derived peptide P5; assay: peptide array, immobilised linear 15-mers
Method: as §1

[6] = target: T6, ANGPTL4-derived peptide P32; assay: peptide array, immobilised linear 15-mers
Method: as §1

[7] = target: T7, ANGPTL4-derived peptide P16; assay: peptide array, immobilised linear 15-mers
Method: as §1

[8] = target: T8, ANGPTL4-derived peptide P21; assay: peptide array, immobilised linear 15-mers
Method: as §1

[9] = target: T9, ANGPTL4-derived peptide P26; assay: peptide array, immobilised linear 15-mers
Method: as §1

[10] = target: T10, ANGPTL4-derived peptide P40; assay: peptide array, immobilised linear 15-mers
Method: as §1

[11] = target: T11, Human ANGPTL3(17-460)-FLAG-His-Avi; assay: direct ELISA on streptavidin-coated MSD plate: biotinylated antigen immobilised at 1 nM, antibody at 1 nM, detection with Sulfo-tagged goat anti-human IgG
Method: Direct ELISA assays were conducted to characterize antibody binding specificity of selected antibodies of the invention. The assay was performed as follows. A 384-well streptavidin-coated Meso Scale Discovery (MSD) plate was blocked by incubating the plate with 50 μL Blocking Buffer (PBS, pH 7.4, 5% w/v bovine serum albumin) per well at 22° C. for 1 hour with constant shaking (600 rpm). The blocked MSD plate was then washed 3 times with Wash Buffer (PBS, pH 7.4 and 0.05% v/v Tween-20) using a plate washer (BioTek). Following washing, biotinylated human ANGPTL4 proteins diluted in Assay Buffer (PBS, pH 7.4 without CaCl₂ or MgCl₂, 0.5% w/v fatty acid-free bovine serum albumin and 0.02% v/v Tween-20) were immobilized on the surface by incubation at 1 nM concentration (15 μL per well) at 22° C. for one hour: full length human ANGPTL4 (hANGPTL4), human ANGPTL4 coiled-coil domain (hANGPTL4-CCD) and full length human ANGPTL3 (hANGPTL3). The plate was then washed 3 times as described earlier. Antibody diluted to 1 nM concentration in Assay Buffer was then applied to the MSD plate […], and the plate was incubated for 1 hour at 22° C. with constant shaking (600 rpm). Bound antibodies were detected by adding 15 μL per well of a 1:500 dilution of Sulfo-tagged goat anti-human IgG. The plate was then incubated for one hour with constant shaking (600 rpm). The plate was washed 3 times, and then 15 μL/well of 1×MSD read buffer T was added and the plate was developed using a Sector Imager 6000 (Meso Scale Discovery). The data were transferred to Microsoft Excel for analysis and plotted using GraphPad Prism v6. […] An ANGPTL3-specific reference antibody was used as a positive control for the ANGPTL3 binding assay (FIG. 2).

[12] = target: T1, Human ANGPTL4(26-406)-FLAG-His6-Avi; assay: cell-based or functional assay; remark: listed apart in the source
[13] = target: T1, Human ANGPTL4(26-406)-FLAG-His6-Avi; assay: cell-based or functional assay; remark: listed apart in the source

| Binder | Reversal of human ANGPTL4 inhibition of human LPL EC50 [1] [nM] | binding result [2] | binding result [3] | binding result [4] | binding result [5] | binding result [6] | binding result [7] | binding result [8] | binding result [9] | binding result [10] | binding result [11] | EC50 (read off the curve) [1(C] [12] [nM] | EC50 (read off the curve) [1(A] [13] [nM] |
| --- | --- | --- | --- | --- | --- | --- | --- | --- | --- | --- | --- | --- | --- |
| MOR022765 (antibody, human IgG1, lambda, V domains shown, human IgG1) VH: EVQLVQSGAEVKKPGESLKISCKGSGYSFSTYWISWVRQMPGKGLEWMGIIDPSSSDTRYSPSFQGQVTISADKSISTAYLQWSSLKASDTAMYYCARVYGYVYMDVWGQGTLVTVSS VL: SYELTQPLSVSVALGQTARITCSGDNLGKKYAYWYQQKPGQAPVLVIYDKTKRPSGIPERFSGSNSGNTATLTISRAQAGDEADYYCASYDWYSSSYVFGGGTKLTVLG | 3 | no binding | no binding | no binding | no binding | no binding | no binding | no binding | no binding | no binding | – | – | – |
| MOR021798 (antibody, human IgG1, lambda, V domains shown, human IgG1) VH: QVQLLESGGGLVQPGGSLRLSCAASGFTFSDYALHWVRQAPGKGLEWVSRISYMGSSTYYADSVKGRFTISRDNSKNTLYLQMNSLRAEDTAVYYCAREHYYSSPMGGVAVDNWGQGTLVTVSS VL: DIVLTQPPSVSGAPGQRVTISCSGSSSNIGYNTVSWYQQLPGTAPKLLIYSNNIRPSGVPDRFSGSKSGTSASLAITGLQAEDEADYYCSSWDFLIKSLVFGGGTKLTVLG | – | – | – | – | – | – | – | – | – | – | no binding (tested: 1 nM) | ~3 | – |
| MOR021792 (antibody, human IgG1, lambda, V domains shown) VH: QVQLLESGGGLVQPGGSLRLSCAASGFTFSDYAMDWVRQAPGKGLEWVSKISYDGSYTYYADSVKGRFTISRDNSKNTLYLQMNSLRAEDTAVYYCARPSMSYYIIPAGFDVWGQGTLVTVSS VL: DIELTQPPSVSVSPGQTASITCSGDALGVKRASWYQQKPGQAPVLVIYKDNNRPSGIPERFSGSNSGNTATLTISGTQAEDEADYYCSVRTWSMNLYVFGGGTKLTVLG | – | – | – | – | – | – | – | – | – | – | no binding (tested: 1 nM) | – | 1 to 2 |
